# Measured values taken from PMC3314626, “Crystal Structures of the Tetratricopeptide Repeat Domains of Kinesin Light Chains: Insight into Cargo Recognition Mechanisms” (PLoS ONE, 2012).
# Target: T1, KLC2-TPR S328N mutant (human, UniProt Q9H0B6-1 217-480, S328N)
# T1 construct: kinesin light chain 2 (KLC2), human, TPR domain, residues 217-480 of GenBank NP_073733, with S328N; made from the KLC2-TPR construct with a QuickChange kit; also called KLC2-S328N; not shown: His6 (from the vector pET28-LIC, modified)
# Experiment: ITC; peptide (1-3 mM) in the syringe injected into 60-130 uM KLC1-TPR or KLC2-TPR (or mutant) in the cell; 25 C; 20 mM Bis-Tris pH 6.5, 500 mM NaCl, 0.5 mM TCEP; one-site binding model
# Conditions: both partners purified
# T1 sequence (Q9H0B6 217-480 S328N): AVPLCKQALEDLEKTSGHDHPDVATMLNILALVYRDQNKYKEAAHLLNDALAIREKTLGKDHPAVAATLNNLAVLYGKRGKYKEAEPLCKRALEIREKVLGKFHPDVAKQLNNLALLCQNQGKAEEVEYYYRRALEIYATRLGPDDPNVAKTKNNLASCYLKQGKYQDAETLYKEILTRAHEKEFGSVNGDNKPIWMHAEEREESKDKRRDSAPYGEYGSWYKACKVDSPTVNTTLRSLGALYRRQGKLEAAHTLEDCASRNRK
binder,measurement,value
Ac-EYTCPTEDIYLE-OH (also called JIP peptide; source: synthetic peptide (Tufts University Core Facility)) [JIP1 peptide (C-terminal residues of JNK-interacting protein 1)],Kd,18.7 µM
same,dH,-15.9 kcal/mol
same,stoichiometry N,1.18
